Legend:
human CD9 = biological target: T1, human CD9 (human, UniProt P21926 2-228); experiment: selection on cells expressing full-length CD9; method not described
T1 construct: The cells expressing full-length CD9 that were used to select the antibodies are not described; In the functional assays CD9 stands on human PBMC; also called full-length cell-expressed CD9; Tetraspanin-29
T1 sequence: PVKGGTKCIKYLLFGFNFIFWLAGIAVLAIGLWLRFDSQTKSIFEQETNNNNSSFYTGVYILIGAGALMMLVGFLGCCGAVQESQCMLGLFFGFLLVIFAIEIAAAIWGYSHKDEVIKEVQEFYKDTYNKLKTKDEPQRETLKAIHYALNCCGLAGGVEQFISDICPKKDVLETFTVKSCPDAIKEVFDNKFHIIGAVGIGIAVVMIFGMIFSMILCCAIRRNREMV

[1] = biological target: T2, recombinant human CD9 long extracellular loop 2-human Fc fusion protein (10015-CD, R&D Systems) (human, UniProt P21926 112-195); experiment: biolayer interferometry (Octet RED384), CD9 loop 2-human Fc captured on AHC biosensors, Fab at 10 µg/mL
T2 construct: Bought reagent; also called CD9-loop2; long extracellular loop 2 peptide; not shown: human Fc
T2 sequence: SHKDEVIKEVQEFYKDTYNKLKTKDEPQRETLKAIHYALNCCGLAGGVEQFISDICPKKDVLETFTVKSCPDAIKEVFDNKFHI
Description: CD9 contains two extracellular loops: a short extracellular loop (loop 1: 34-55 in SEQ ID NO:2) and a long extracellular loop (loop 2: 112-195 in SEQ ID NO:2). We used biolayer interferometry to assess binding of our panel of CD9 Fab-Y antibodies (selected for their ability to bind full-length cell-expressed CD9) to the long extracellular loop 2 peptide, using the Octet® RED384 System (ForteBio) with Anti-hlgG Fc Capture (AHC) Biosensors (ForteBio) at room temperature. Firstly, an array of 8 sensors was dipped in kinetics buffer (PBS 0.1%, BSA 0.02%, Tween 20) for 120 seconds to provide a baseline signal. Sensors were then moved to wells containing 200 μl of recombinant human CD9 long extracellular loop 2-human Fc fusion protein (10015-CD, R&D Systems®) at 2 μg/mL in kinetics buffer to immobilize the protein to the biosensor (100 seconds), followed by a second baseline step (180 seconds) in kinetics buffer to equilibrate the biosensors now coated with the CD9 long extracellular loop 2-human Fc fusion protein. No detachment of the peptide was observed during this step. Sensors were then dipped in wells containing one of the anti-CD9 Fab (10 μg/mL) to evaluate association of each antibody to CD9-loop2 (120 seconds), followed by dissociation in kinetics buffer (600 seconds). Anti-CD137 Fab-Y (11175) was used as negative control during the antibody association step. […]

B1: anti-CD9 Fab-Y antibody 7272 (Fab, V domains shown)
VH: QSLEESGGRLVTPGTPLTLTCTVSGFSLSSYAMGWVRQAPGKGLEWIGAIGSITATGYARWAKGRFSISKTSTTVDLKMTSPTTEDTATYFCAREIYVGSAYAFDIWGPGTLVTVSS
VL: AYDMTQTPASVEVAVGDTVTIKCQASQSISNYLAWYQQKPGQPPKLLIYLASTLASGVPSRFKGSGSGTEFTLTISDLECADAATYYCQQGYIDNVNKGFGGGTEVVVK
notes: also called VR7272
- binding result (human CD9): binds
- binding result [1]: binds
